The values below come from the supplement of paper PMC10899765.

Common to all, as to settings: 20 nM; 72 h
In series [1] the test system is MCF10A. Kind of series: percent viability (nuclei count relative to siNT); higher = more viable cells. As to the method: (§1)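 After 72 h, cells were fixed and stained with Hoechst and anti-fibrillarin, and nucleoli per nucleus were counted with CellProfiler. Values are plate-adjusted percent effect for the one-nucleolus and 5+ nucleoli phenotypes, normalised to siNT (0%) and to the positive controls siNOL11 or siKIF11 (100%), as the mean of biological triplicates. Percent viability is the nuclei count relative to siNT.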

For series [2], the system named is MCF10A. Kind of series: one-nucleolus phenotype percent effect (relative to siNT 0% and siNOL11 100%); higher = more cells with one nucleolus (ribosome biogenesis inhibition). The method, then:
as §1

Series [3] deals with MCF10A. The experiment in a line: 5+ nucleoli phenotype percent effect (relative to siNT 0% and siKIF11 100%); higher = more cells with five or more nucleoli. The method, then:
as §1

For UGAGGCUAAUGCACUACUUCAC [hsa-miR-3975], the percent viability in series [1] was determined as 15.5%. Also, the “one-nucleolus phenotype percent effect” value in series [2] stood at 38.9%. The “5+ nucleoli phenotype percent effect” value in series [3] is -22.7%.

As to CCCCGCCACCGCCUUGG [hsa-miR-4258], the percent viability in series [1] was 54.5%. The “one-nucleolus phenotype percent effect” value in series [2] is -17.4%. Also, the “5+ nucleoli phenotype percent effect” value in series [3] was 29.4%.

In the case of CUGCAAAGGGAAGCCCUUUC [hsa-miR-527], in series [1], the percent viability was found to be 32.8%. For the same sequence, the “one-nucleolus phenotype percent effect” value in series [2] is 46.6%. Besides, the “5+ nucleoli phenotype percent effect” value in series [3] is -41.4%.

Regarding UGAGGGAGUUGGGUGUAUA [hsa-miR-6129], the percent viability in series [1] is 24.3%. Further, the “one-nucleolus phenotype percent effect” value in series [2] was determined as 18.8%. For the same sequence, the “5+ nucleoli phenotype percent effect” value in series [3] is -7.69%.

As to “AGGGGGCGCAGUCACUGACGUG [hsa-miR-4697-5p]”, the percent viability in series [1] was 18.2%. The “one-nucleolus phenotype percent effect” value in series [2] came out at 5.16%. Moreover, the “5+ nucleoli phenotype percent effect” value in series [3] is -0.0636%.

On to UCAAGUGUCAUCUGUCCCUAG [hsa-miR-6513-3p], for which, in series [1], the percent viability came out at 126%. In addition, the “one-nucleolus phenotype percent effect” value in series [2] was -7.47%. Further, the “5+ nucleoli phenotype percent effect” value in series [3] stood at 42.1%.

Regarding UGUGAGGUUGGCAUUGUUGUCU [hsa-miR-1294], in series [1], the percent viability was 28.9%. Moreover, in series [2], the “one-nucleolus phenotype percent effect” value came to 19%. Besides, in series [3], the “5+ nucleoli phenotype percent effect” value is -10.7%.

As to AUCCUAGUCACGGCACCA [hsa-miR-7975], the percent viability in series [1] worked out at 43.7%. Moreover, in series [2], the “one-nucleolus phenotype percent effect” value was 12.9%. Further, the “5+ nucleoli phenotype percent effect” value in series [3] was -29.1%.

In the case of “AGGCGAUGUGGGGAUGUAGAGA [hsa-miR-6717-5p]”, the percent viability in series [1] is 30.5%. In addition, the “one-nucleolus phenotype percent effect” value in series [2] worked out at 19.4%. Moreover, the “5+ nucleoli phenotype percent effect” value in series [3] was -15.8%.

For the sequence “AAAGUGCAUCCUUUUAGAGGUU [hsa-miR-519b-3p]”, the percent viability in series [1] is 104%. For the same sequence, the “one-nucleolus phenotype percent effect” value in series [2] is -24%. Moreover, the “5+ nucleoli phenotype percent effect” value in series [3] was found to be 75.9%.

For “UUCAUGAACUGGGUCUAGCUUGG [hsa-miR-7154-5p]”, the percent viability in series [1] came to 60.8%. Further, in series [2], the “one-nucleolus phenotype percent effect” value is -15.2%. Further, the “5+ nucleoli phenotype percent effect” value in series [3] is -0.807%.

For “UCCCCUGCUCCCUUGUUCCCCAG [hsa-miR-6810-3p]”, the percent viability in series [1] was determined as 35.1%. Moreover, the “one-nucleolus phenotype percent effect” value in series [2] is 3.27%. The “5+ nucleoli phenotype percent effect” value in series [3] was determined as 4.97%.

For the sequence GGGGCGCGGCCGGAUCG [hsa-miR-3178], the percent viability in series [1] stood at 93.3%. Further, the “one-nucleolus phenotype percent effect” value in series [2] was -32.2%. In addition, the “5+ nucleoli phenotype percent effect” value in series [3] was 51.5%.

Regarding CAUCUGGGCAACUGACUGAAC [hsa-miR-1298-3p], the percent viability in series [1] came out at 7.06%. Further, the “one-nucleolus phenotype percent effect” value in series [2] was 57%. The “5+ nucleoli phenotype percent effect” value in series [3] was -17.1%.

In the case of GCGGUGGGGCCGGAGGGGCGU [hsa-miR-6786-5p], the percent viability in series [1] came out at 96.7%. Also, the “one-nucleolus phenotype percent effect” value in series [2] is -24.9%. Further, the “5+ nucleoli phenotype percent effect” value in series [3] stood at 31.9%.

Turning to “AACUCCAAACACUCAAAACUCA [hsa-miR-3145-5p]”, in series [1], the percent viability worked out at 119%. Moreover, the “one-nucleolus phenotype percent effect” value in series [2] is -24.6%. Besides, the “5+ nucleoli phenotype percent effect” value in series [3] worked out at 43.6%.

Regarding “UGGGGGGACAGAUGGAGAGGACA [hsa-miR-6887-5p]”, the percent viability in series [1] amounted to 22.6%. Further, the “one-nucleolus phenotype percent effect” value in series [2] turned out to be 22.8%. Moreover, the “5+ nucleoli phenotype percent effect” value in series [3] is -8.17%.

Take CAGUGAUCGUCUCUGCUGGC [hsa-miR-8079]: the percent viability in series [1] worked out at 41.6%. For the same sequence, the “one-nucleolus phenotype percent effect” value in series [2] was determined as 6.32%. In series [3], the “5+ nucleoli phenotype percent effect” value is -35%.

On to “UGAGUGUGUGUGUGUGAGUGUGU [hsa-miR-574-5p]”, for which, in series [1], the percent viability was 42%. The “one-nucleolus phenotype percent effect” value in series [2] stood at 3.74%. Besides, the “5+ nucleoli phenotype percent effect” value in series [3] is -4.79%.

Consider UUUAGAGACGGGGUCUUGCUCU [hsa-miR-1303], for which, in series [1], the percent viability was 71.3%. Moreover, in series [2], the “one-nucleolus phenotype percent effect” value is -10.2%. Besides, in series [3], the “5+ nucleoli phenotype percent effect” value is 17.6%.

Take CACUAGAUUGUGAGCUCCUGGA [hsa-miR-28-3p]: the percent viability in series [1] came to 92.2%. In addition, in series [2], the “one-nucleolus phenotype percent effect” value was -9.21%. The “5+ nucleoli phenotype percent effect” value in series [3] was found to be 12.4%.

With “AGUGCCUGCUAUGUGCCAGGCA [hsa-miR-1271-3p]”, the percent viability in series [1] worked out at 39.3%. In addition, in series [2], the “one-nucleolus phenotype percent effect” value is -6.99%. Further, in series [3], the “5+ nucleoli phenotype percent effect” value was 4.16%.

For AAAAUUUCUUUCACUACUUAG [hsa-miR-3606-3p], the percent viability in series [1] came to 54%. Further, the “one-nucleolus phenotype percent effect” value in series [2] is -25.7%. In addition, in series [3], the “5+ nucleoli phenotype percent effect” value was 41.5%.

For the sequence UGGGGCGGGGCAGGUCCCUGC [hsa-miR-6816-5p], the percent viability in series [1] was 71.1%. Besides, the “one-nucleolus phenotype percent effect” value in series [2] is -19%. For the same sequence, in series [3], the “5+ nucleoli phenotype percent effect” value was determined as 30.8%.

On to “UCUUCUUCCUUUGCAGAGUUGA [hsa-miR-4778-3p]”, for which the percent viability in series [1] was found to be 77.1%. Also, the “one-nucleolus phenotype percent effect” value in series [2] is -1.98%. In series [3], the “5+ nucleoli phenotype percent effect” value was determined as 1.95%.

Take “UGAGGAUGGAUAGCAAGGAAGCC [hsa-miR-3605-5p]”: in series [1], the percent viability amounted to 69.7%. Further, the “one-nucleolus phenotype percent effect” value in series [2] was -3.45%. For the same sequence, the “5+ nucleoli phenotype percent effect” value in series [3] is 12%.

“UAAGUGCUUCCAUGUUUUAGUAG [hsa-miR-302b-3p]”: the percent viability in series [1] was determined as 74.9%. Further, the “one-nucleolus phenotype percent effect” value in series [2] is -12.2%. Moreover, the “5+ nucleoli phenotype percent effect” value in series [3] is 33.7%.

In the case of UCAGGCUCAGUCCCCUCCCGAU [hsa-miR-484], in series [1], the percent viability came to 97%. Also, the “one-nucleolus phenotype percent effect” value in series [2] was -7.07%. Also, the “5+ nucleoli phenotype percent effect” value in series [3] worked out at 40.7%.

In the case of UUAAUUUUUUGUUUCGGUCACU [hsa-miR-4775], the percent viability in series [1] turned out to be 88.3%. Also, in series [2], the “one-nucleolus phenotype percent effect” value was -18.6%. The “5+ nucleoli phenotype percent effect” value in series [3] was 21.1%.

For the sequence GUGACAUCACAUAUACGGCAGC [hsa-miR-489], the percent viability in series [1] was 22.4%. The “one-nucleolus phenotype percent effect” value in series [2] was 53.7%. In addition, the “5+ nucleoli phenotype percent effect” value in series [3] is -33.1%.

On to AUUCUGCAUUUUUAGCAAGUUC [hsa-miR-544a], for which the percent viability in series [1] turned out to be 26.6%. For the same sequence, the “one-nucleolus phenotype percent effect” value in series [2] came to 5.39%. For the same sequence, in series [3], the “5+ nucleoli phenotype percent effect” value is -31.2%.

On to “CUGCAAUGUAAGCACUUCUUAC [hsa-miR-106a-3p]”, for which the percent viability in series [1] was determined as 72.6%. Besides, the “one-nucleolus phenotype percent effect” value in series [2] stood at 18.7%. The “5+ nucleoli phenotype percent effect” value in series [3] was -24.5%.

In the case of CCAGGAGAUCCAGAGAGAAU [hsa-miR-4768-3p], the percent viability in series [1] came out at 32.6%. The “one-nucleolus phenotype percent effect” value in series [2] stood at 0.373%. Further, the “5+ nucleoli phenotype percent effect” value in series [3] is 1.69%.

In the case of “GACUCACUCACAGGAUUGUGCA [hsa-miR-3680-5p]”, the percent viability in series [1] was determined as 58.9%. The “one-nucleolus phenotype percent effect” value in series [2] was -12%. Moreover, the “5+ nucleoli phenotype percent effect” value in series [3] turned out to be 39.7%.

“UUGAACUGUUAAGAACCACUGGA [hsa-miR-203b-3p]”: the percent viability in series [1] worked out at 36.7%. Moreover, the “one-nucleolus phenotype percent effect” value in series [2] was 29.5%. Besides, the “5+ nucleoli phenotype percent effect” value in series [3] is -29.1%.

With “AAAAUGGUGCCCUAGUGACUACA [hsa-miR-224-3p]”, the percent viability in series [1] turned out to be 13.9%. In addition, in series [2], the “one-nucleolus phenotype percent effect” value was 12.8%. Moreover, the “5+ nucleoli phenotype percent effect” value in series [3] is -15%.
